Source: PMC5538822, “RNA-dependent stabilization of SUV39H1 at constitutive heterochromatin”

Experiments:
[1] = target: T1, MBP-SUV39H1 1-106 (NTE + chromodomain) (Homo sapiens) (UniProt O43463); test: EMSA; conditions: 20 mM Tris-HCl pH 7.4, 50 mM NaCl, 10% glycerol, ~4 U RNase inhibitor, room temperature 10 min; native gel 0.5X TBE at 25 C; filter binding on nitrocellulose …
T1 sequence: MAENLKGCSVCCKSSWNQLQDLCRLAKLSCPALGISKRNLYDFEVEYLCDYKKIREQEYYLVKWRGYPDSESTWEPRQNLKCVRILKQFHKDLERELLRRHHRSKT

[2] = target: T2, MBP-SUV39H1 1-106 (NTE + chromodomain) (Homo sapiens, UniProt O43463 1-106); test: EMSA; 20 mM Tris-HCl pH 7.4, 50 mM NaCl, 10% glycerol, ~4 U RNase inhibitor, room temperature 10 min; native gel 0.5X TBE at 25 C; filter binding on nitrocellulose in the same buffer; conditions: protein: recombinant, tags: MBP, label: 32P
T2 sequence: T1 sequence

[3] = target: T3, MBP-SUV39H1 42-106 (chromodomain) (Homo sapiens, UniProt O43463 42-106); test: as above; conditions: protein: recombinant; tags: MBP; label: 32P
T3 sequence: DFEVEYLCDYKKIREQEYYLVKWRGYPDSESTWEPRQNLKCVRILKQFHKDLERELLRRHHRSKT

[4] = target: T4, MBP-SUV39H1 1-41 (N-terminal extension) (Homo sapiens, UniProt O43463 1-41); test: as above; conditions: protein: recombinant; tags: MBP; label: 32P
T4 chain: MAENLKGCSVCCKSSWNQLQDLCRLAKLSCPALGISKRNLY

[5] = target: T5, MBP-SUV39H1 107-412 (pre-SET, SET, post-SET) (Homo sapiens, UniProt O43463 107-412); test: as above; conditions: protein: recombinant; tags: MBP; label: 32P
T5 sequence: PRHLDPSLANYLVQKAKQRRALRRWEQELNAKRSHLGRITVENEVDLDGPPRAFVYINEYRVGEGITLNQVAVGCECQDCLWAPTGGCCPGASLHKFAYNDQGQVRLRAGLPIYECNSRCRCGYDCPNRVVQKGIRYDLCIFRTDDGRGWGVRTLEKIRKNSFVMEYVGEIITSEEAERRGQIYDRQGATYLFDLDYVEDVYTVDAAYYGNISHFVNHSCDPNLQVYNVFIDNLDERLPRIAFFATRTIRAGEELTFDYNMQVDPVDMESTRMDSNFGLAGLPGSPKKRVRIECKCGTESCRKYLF

Molecule: beta-actin ssRNA (180mer)
- Kd [1]: 32 nM

Molecule: alpha-satellite ssRNA (180mer)
- Kd [1]: 23 nM

B1: antisense 19mer ssRNA (ssRNA)
RNA: GGGAUCAGUGGUUCCCAUA
- Kd [2]: 366 ± 22 nM

B2: ssDNA, sense MBP 1-50 (ssDNA)
DNA: ACCAAAATCGAAGAAGGTAAACTGGTAATCTGGATTAACGGCGATAAAGG
- binding result [2]: binds

B3: dsDNA MBP 1-50 (dsDNA)
DNA 1: B2 DNA
DNA 2: CCTTTATCGCCGTTAATCCAGATTACCAGTTTACCTTCTTCGATTTTGGT
- Kd ([2]; blunt): 185 ± 17 nM

B4: dsRNA MBP 1-50 (dsRNA)
RNA 1: ACCAAAAUCGAAGAAGGUAAACUGGUAAUCUGGAUUAACGGCGAUAAAGG
RNA 2: CCUUUAUCGCCGUUAAUCCAGAUUACCAGUUUACCUUCUUCGAUUUUGGU
- binding result ([2]; blunt): binds

B5: ssRNA1, sense MBP 1-50 (ssRNA)
RNA: B4 RNA 1
- Kd [2]: 61 ± 5 nM

B6: ssRNA2, antisense MBP 1-50 (ssRNA)
RNA: B4 RNA 2
- Kd [2]: 64 ± 3 nM

B7: sense 19mer ssRNA (ssRNA)
RNA: AUAUGGGAACCACUGAUCC
- Kd [3]: 2310 ± 170 nM
- Kd [2]: 145 ± 9 nM
- Kd [4]: 51 ± 30 µM
- binding result [5]: no binding
